Laboratory results taken from patent US6407062 (ST JUDE CHILDREN S RESEARCH HOSPITAL, dated 2000).

What was measured:
[1] = target: endogenous wild-type p53 of mouse fibroblasts (NIH-3T3 cells, MEFs) (mouse, UniProt P02340 1-390); test: sequential immunoprecipitation from NIH-3T3 cells; EMSA
CDK4 (mouse, endogenous) [2] = target: T1, CDK4 (mouse, endogenous) (mouse, UniProt P30285 2-303); test: immunoprecipitates from cell lysates blotted with anti-ARF-p19; Sf9 baculovirus reconstruction also gave no convincing evidence
T1 sequence (looked up): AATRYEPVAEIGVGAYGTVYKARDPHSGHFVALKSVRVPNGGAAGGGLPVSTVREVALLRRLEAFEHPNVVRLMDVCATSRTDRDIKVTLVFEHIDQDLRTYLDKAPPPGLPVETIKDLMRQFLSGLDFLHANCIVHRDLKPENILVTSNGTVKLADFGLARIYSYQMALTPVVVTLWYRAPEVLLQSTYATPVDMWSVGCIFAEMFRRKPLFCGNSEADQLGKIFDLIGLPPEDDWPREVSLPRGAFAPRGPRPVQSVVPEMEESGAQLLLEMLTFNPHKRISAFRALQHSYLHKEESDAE

CDC2 (mouse, endogenous) = target: T2, CDC2 (mouse, endogenous) (mouse, UniProt P11440 1-297); test: as above
T2 construct: also called CDK1
T2 sequence (P11440 whole entry): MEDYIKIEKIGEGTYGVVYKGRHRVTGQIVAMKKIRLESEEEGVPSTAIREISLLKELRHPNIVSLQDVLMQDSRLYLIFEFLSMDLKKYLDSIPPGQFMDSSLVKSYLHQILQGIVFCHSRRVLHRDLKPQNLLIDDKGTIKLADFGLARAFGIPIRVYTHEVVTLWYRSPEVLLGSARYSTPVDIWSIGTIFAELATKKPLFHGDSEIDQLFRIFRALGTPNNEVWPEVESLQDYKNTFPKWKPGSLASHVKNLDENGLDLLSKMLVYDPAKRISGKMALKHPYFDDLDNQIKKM

[3] = target: cyclin A (mouse, endogenous) (mouse, UniProt P51943 1-422, limits assumed); test: as above
Sequence of cyclin A (mouse, endogenous) (P51943 whole entry): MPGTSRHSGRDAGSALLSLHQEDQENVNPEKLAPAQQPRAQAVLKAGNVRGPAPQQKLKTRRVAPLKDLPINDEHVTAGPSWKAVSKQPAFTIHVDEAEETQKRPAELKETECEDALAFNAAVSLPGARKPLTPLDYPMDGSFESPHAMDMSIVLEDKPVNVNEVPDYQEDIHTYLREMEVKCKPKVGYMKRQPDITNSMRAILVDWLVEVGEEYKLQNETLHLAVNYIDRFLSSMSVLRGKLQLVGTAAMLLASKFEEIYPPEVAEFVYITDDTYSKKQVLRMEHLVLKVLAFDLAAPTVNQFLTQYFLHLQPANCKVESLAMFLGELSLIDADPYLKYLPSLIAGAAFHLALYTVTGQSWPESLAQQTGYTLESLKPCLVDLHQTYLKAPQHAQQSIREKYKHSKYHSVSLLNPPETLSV

CDK6 (mouse, endogenous) = CDK6 (mouse, endogenous) (mouse, UniProt Q64261 1-326); test: as above
Sequence of CDK6 (mouse, endogenous) (Q64261 whole entry): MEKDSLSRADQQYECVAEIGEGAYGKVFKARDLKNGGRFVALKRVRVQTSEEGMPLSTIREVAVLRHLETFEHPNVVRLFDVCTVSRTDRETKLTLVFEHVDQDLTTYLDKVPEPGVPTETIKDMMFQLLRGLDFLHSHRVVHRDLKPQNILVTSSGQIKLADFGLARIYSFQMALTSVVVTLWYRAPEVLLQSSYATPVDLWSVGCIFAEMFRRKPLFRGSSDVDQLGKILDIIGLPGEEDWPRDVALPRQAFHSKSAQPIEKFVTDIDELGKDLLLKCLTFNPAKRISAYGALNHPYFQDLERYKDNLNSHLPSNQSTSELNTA

[4] = target: cyclin D1 (mouse, endogenous) (mouse, UniProt P25322 1-295); test: as above
Sequence of cyclin D1 (mouse, endogenous) (P25322 whole entry): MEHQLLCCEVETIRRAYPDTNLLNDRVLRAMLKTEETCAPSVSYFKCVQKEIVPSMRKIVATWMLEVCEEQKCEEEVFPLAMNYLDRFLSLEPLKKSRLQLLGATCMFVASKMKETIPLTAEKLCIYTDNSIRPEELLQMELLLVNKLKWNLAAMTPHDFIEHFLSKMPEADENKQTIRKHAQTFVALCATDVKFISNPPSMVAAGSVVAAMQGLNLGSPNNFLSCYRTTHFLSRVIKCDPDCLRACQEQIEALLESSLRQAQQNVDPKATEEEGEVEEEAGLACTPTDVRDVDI

[5] = target: cyclin D2 (mouse, endogenous) (mouse, UniProt P30280 1-289); test: as above
Sequence of cyclin D2 (mouse, endogenous) (P30280 whole entry): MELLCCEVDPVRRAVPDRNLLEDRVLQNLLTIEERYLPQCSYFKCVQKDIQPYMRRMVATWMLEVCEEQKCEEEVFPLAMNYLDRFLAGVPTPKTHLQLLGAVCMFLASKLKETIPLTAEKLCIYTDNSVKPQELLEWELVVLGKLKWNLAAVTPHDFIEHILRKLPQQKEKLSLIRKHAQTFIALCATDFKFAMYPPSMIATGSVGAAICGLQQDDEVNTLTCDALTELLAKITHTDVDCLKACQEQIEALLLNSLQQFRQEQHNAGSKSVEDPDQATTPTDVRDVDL

[6] = target: T3, Hdm2 (Human Double Minute 2, full-length, untagged) (human, UniProt Q00987 1-491); test: binding assay not described further
T3 construct: GenBank M92424 printed; also called wild type Hdm2
T3 sequence (Q00987 whole entry): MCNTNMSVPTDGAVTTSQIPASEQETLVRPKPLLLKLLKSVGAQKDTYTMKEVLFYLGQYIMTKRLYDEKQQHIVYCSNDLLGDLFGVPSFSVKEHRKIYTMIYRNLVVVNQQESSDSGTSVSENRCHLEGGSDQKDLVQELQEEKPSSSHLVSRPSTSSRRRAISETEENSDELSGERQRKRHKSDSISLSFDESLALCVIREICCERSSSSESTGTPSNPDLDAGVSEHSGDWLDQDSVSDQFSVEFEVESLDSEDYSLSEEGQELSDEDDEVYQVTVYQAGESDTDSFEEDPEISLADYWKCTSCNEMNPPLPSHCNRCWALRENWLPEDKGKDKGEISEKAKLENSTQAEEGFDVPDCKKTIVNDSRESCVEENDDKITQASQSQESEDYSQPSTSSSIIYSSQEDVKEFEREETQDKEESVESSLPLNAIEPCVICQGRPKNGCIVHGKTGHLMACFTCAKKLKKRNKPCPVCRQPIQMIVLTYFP

CDK4 (mouse, endogenous) [7] = target: T1, CDK4 (mouse, endogenous); test: p16 immunoprecipitates blotted with antiserum to CDK4
[8] = target: T4, Hdm2 140-350 (polyhistidine-tagged, bacterial) (human, UniProt Q00987 140-350); test: immunoprecipitation and blot with bacterial Hdm2 140-350
T4 construct: The sense primer places an ATG before residue 141, so position 140 of the construct may be Met; also called Hdm2 140-350 polypeptide; not shown: N-terminal polyhistidine tag of pET28a
T4 sequence (Q00987 140-350): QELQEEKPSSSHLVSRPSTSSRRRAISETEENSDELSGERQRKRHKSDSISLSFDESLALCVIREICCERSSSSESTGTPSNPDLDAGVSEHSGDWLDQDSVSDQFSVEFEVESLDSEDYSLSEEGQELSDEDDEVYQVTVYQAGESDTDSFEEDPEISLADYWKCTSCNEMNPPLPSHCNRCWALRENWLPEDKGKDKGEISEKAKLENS

[9] = target: T5, Hdm2 210-304 (polyhistidine-tagged, bacterial) (human, UniProt Q00987 210-304); test: FPLC affinity chromatography on peptide coupled to Sepharose
T5 construct: The sense primer places an ATG before residue 211; not shown: N-terminal polyhistidine tag of pET28a
T5 sequence (Q00987 210-304): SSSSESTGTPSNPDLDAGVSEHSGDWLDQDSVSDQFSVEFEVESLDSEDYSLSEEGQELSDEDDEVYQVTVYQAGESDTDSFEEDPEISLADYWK

[10] = target: T4, Hdm2 140-350 (polyhistidine-tagged, …); test: as above
[11] = target: T6, Mdm2 (Murine Double Minute 2, full-length) (mouse, UniProt P23804 1-489); test: His-tagged syn-ARF N37 mixed with Mdm2 from Sf9 cells, immunoprecipitation with 2A10 or anti-polyhistidine and blot
T6 construct: Full-length protein made in Sf9 cells from a baculovirus, or endogenous in NIH-3T3 cells; GenBank X58876 printed; also called wild type Mdm2; full-length Mdm2
T6 sequence (P23804 other isoform, or with tags, fused parts or gaps limits assumed): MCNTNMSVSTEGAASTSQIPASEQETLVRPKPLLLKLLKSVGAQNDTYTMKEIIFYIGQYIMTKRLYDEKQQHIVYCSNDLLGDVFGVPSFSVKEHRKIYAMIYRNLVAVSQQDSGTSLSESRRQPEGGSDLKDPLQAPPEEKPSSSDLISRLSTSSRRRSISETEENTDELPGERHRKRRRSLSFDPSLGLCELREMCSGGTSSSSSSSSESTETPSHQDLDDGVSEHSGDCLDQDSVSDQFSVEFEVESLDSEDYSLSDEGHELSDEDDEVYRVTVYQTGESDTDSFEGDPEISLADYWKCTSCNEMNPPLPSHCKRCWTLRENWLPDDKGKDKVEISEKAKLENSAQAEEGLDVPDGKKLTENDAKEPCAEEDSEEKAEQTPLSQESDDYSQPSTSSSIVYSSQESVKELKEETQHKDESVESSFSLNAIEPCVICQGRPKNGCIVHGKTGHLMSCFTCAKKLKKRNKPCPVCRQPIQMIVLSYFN

[12] = target: T5, Hdm2 210-304 (polyhistidine-tagged, …); test: FPLC affinity chromatography, NaCl gradient then acid
[13] = target: T4, Hdm2 140-350 (polyhistidine-tagged, …); test: FPLC affinity chromatography, ARF polypeptide coupled to Sepharose, NaCl gradient then acid

Sequence of endogenous wild-type p53 of mouse fibroblasts (NIH-3T3 cells, MEFs) (P02340 whole entry): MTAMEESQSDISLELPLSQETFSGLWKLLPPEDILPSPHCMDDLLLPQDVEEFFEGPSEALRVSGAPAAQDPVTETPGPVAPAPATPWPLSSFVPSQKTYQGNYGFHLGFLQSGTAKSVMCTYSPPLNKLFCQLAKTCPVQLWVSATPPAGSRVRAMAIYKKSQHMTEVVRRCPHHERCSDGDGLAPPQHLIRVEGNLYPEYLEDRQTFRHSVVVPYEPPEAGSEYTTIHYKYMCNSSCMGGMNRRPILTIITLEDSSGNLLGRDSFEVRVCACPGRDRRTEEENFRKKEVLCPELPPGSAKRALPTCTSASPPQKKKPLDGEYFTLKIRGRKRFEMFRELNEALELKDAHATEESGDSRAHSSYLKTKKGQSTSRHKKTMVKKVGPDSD

B1: ARF-p19 (mouse, full-length 169 amino acid protein) (other)
chain: MGRRFLVTVRIQRAGRPLQERVFLVKFVRSRRPRTASCALAFVNMLLRLERILRRGPHRNPGPGDDDGQRSRSSSSAQLRCRFELRGPHYLLPPGARRSAGRLPGHAGGAARVRGSAGCARCLGSPAARLGPRAGTSRHRAIFAFRWVLFVFRWVVFVYRWERRPDRRA
notes: also called p19^ARF; p19^ARF protein
[1]
  binding result: binds
CDK4 (mouse, endogenous) [2]
  binding result: no binding
CDC2 (mouse, endogenous)
  binding result: no binding
[3]
  binding result: no binding
CDK6 (mouse, endogenous)
  binding result: no binding
[4]
  binding result: no binding
[5]
  binding result: no binding

B2: syn-ARF N64 (polyhistidine-tagged mouse ARF residues 1-64, made in bacteria) (other)
chain: MGRRFLVTVRIQRAGRPLQERVFLVKFVRSRRPRTASCALAFVNMLLRLERILRRGPHRNPGPG
notes: also called minigene-encoded N64 polypeptide; not shown: N-terminal polyhistidine tag of pET28a
[6]
  binding result: binds

B3: InK4a-p16 (mouse) (other, UniProt P51480 1-168, looked up)
chain: MESAADRLARAAAQGRVHDVRALLEAGVSPNAPNSFGRTPIQVMMMGNVHVAALLLNYGADSNCEDPTTFSRPVHDAAREGFLDTLVVLHGSGARLDVRDAWGRLPLDLAQERGHQDIVRYLRSAGCSLCSAGWSLCTAGNVAQTDGHSFSSSTPRALELRGQSQEQS
notes: not used; also called p16^INK4a
CDK4 (mouse, endogenous) [7]
  binding result: binds

B4: ARF N62 (mouse p19^ARF N-terminal 62 amino acids, HA-tagged) (other, not shown: small tags and cut ends)
chain: MGRRFLVTVRIQRAGRPLQERVFLVKFVRSRRPRTASCALAFVNMLLRLERILRRGPHRNPG
notes: Produced in Sf9 cells; also called HA-tagged N62; ARF N62 mutant
[6]
  binding result: binds

B5: mouse p19^ARF Δ1-14 (HA-tagged deletion mutant) (other)
chain: GRPLQERVFLVKFVRSRRPRTASCALAFVNMLLRLERILRRGPHRNPGPGDDDGQRSRSSSSAQLRCRFELRGPHYLLPPGARRSAGRLPGHAGGAARVRGSAGCARCLGSPAARLGPRAGTSRHRAIFAFRWVLFVFRWVVFVYRWERRPDRRA
notes: also called p19^ARF mutant lacking amino acid residues 1-14; not shown: N-terminal HA tag of the HA-tagged ARF cDNA template
[8]
  binding result: binds

B6: mouse ARF synthetic peptide 15-25 (peptide)
peptide: GRPLQERVFLV
notes: Coupled to Sepharose; also called ARF 15-25
[9]
  binding result: no binding
[10]
  binding result: no binding

B7: mouse p19^ARF Δ15-25 (HA-tagged deletion mutant) (other)
chain: MGRRFLVTVRIQRAKFVRSRRPRTASCALAFVNMLLRLERILRRGPHRNPGPGDDDGQRSRSSSSAQLRCRFELRGPHYLLPPGARRSAGRLPGHAGGAARVRGSAGCARCLGSPAARLGPRAGTSRHRAIFAFRWVLFVFRWVVFVYRWERRPDRRA
notes: not shown: N-terminal HA tag of the HA-tagged ARF cDNA template
[8]
  binding result: binds

B8: mouse p19^ARF Δ26-37 (HA-tagged deletion mutant) (other)
chain: MGRRFLVTVRIQRAGRPLQERVFLVCALAFVNMLLRLERILRRGPHRNPGPGDDDGQRSRSSSSAQLRCRFELRGPHYLLPPGARRSAGRLPGHAGGAARVRGSAGCARCLGSPAARLGPRAGTSRHRAIFAFRWVLFVFRWVVFVYRWERRPDRRA
notes: also called HA-ARF Δ26-37; not shown: N-terminal HA tag
[8]
  binding result: binds

B9: syn-ARF N37 (polyhistidine-tagged mouse ARF residues 1-37, made in bacteria) (peptide)
chain: MGRRFLVTVRIQRAGRPLQERVFLVKFVRSRRPRTAS
notes: also called Synthetic ARF N37; recombinant syn-ARF N37; not shown: N-terminal polyhistidine tag of pET28a
[11]
  binding result: binds
[12]
  binding result: binds
[13]
  binding result: binds

B10: mouse p19^ARF Δ1-14/Δ26-37 (HA-tagged double-deletion mutant) (other)
chain: GRPLQERVFLVCALAFVNMLLRLERILRRGPHRNPGPGDDDGQRSRSSSSAQLRCRFELRGPHYLLPPGARRSAGRLPGHAGGAARVRGSAGCARCLGSPAARLGPRAGTSRHRAIFAFRWVLFVFRWVVFVYRWERRPDRRA
notes: also called ARF Δ1-14/26-37; not shown: N-terminal HA tag
[8]
  binding result: no binding
